Source: publication PMC4709591

Experiments:
[1] = target: human toll-like receptor 5 (TLR5) (human) (UniProt O60602)
[2] = target: human toll-like receptor 5 (TLR5) (human) (UniProt O60602); remark: listed apart in the source
[3] = target: human toll-like receptor 5 (TLR5) (human) (UniProt O60602); remark: listed apart in the source
[4] = target: human toll-like receptor 5 (TLR5) (human) (UniProt O60602); remark: listed apart in the source

UniProt O60602, sequence (O60602 21-858): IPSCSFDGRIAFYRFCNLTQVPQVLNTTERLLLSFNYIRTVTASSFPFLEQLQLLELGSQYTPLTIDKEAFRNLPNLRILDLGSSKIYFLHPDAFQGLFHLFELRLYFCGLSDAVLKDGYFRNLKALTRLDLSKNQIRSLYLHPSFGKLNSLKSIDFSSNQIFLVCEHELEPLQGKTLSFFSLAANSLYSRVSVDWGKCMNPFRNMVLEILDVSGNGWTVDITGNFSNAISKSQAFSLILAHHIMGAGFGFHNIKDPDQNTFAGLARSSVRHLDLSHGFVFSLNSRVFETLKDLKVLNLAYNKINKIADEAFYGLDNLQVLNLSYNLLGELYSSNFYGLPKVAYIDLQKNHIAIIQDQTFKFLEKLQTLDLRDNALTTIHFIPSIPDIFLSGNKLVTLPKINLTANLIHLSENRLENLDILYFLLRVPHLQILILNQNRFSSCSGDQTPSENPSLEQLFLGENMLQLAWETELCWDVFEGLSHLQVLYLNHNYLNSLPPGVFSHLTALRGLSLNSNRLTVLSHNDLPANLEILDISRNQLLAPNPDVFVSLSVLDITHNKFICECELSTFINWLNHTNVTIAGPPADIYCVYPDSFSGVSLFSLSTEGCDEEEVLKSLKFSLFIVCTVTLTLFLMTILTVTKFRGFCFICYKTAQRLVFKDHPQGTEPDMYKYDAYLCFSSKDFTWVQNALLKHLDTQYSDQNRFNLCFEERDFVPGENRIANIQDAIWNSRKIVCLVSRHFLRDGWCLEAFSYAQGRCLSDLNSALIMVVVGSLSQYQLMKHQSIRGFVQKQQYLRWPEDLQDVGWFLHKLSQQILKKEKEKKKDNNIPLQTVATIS

Substance: flagellin mutant SS4 (G35-S457 replaced with cysteine) (from UniProt P06179 1-495) (natural protein)
- EC50 of bioactivity (cell-based TLR5 stimulation assay); decreased against native flagellin [1]: < 10 pM

Substance: soluble SS5 HIII flagellin (L36C-D456C; HPG1+A2I+M310I+M466I) (from UniProt P06179 1-495) (natural protein)
- minimum flagellin concentration stimulating the TLR5 receptors (SEAP reporter in HEK-Blue-hTLR5 cells) [2]: 0.2 pM

Substance: flagellin mutant SS1 (L12-N484 replaced with cysteine) (from UniProt P06179 1-495) (natural protein)
- EC50 of bioactivity (cell-based TLR5 stimulation assay); decreased against native flagellin [1]: < 10 pM

Substance: flagellin-HBc VLP conjugate with 10 flagellins on a VLP (1:10 reactant ratio) (from UniProt P06179 1-495) (complex)
- bioactivity against free flagellin (SEAP reporter in HEK-Blue-hTLR5 cells) [2]: 7 fold

Substance: flagellin (FliC) from S. typhimurium SL1344, full-length (from UniProt P06179 1-495) (natural protein)
- EC50 of bioactivity (SEAP reporter in HEK-Blue-hTLR5 cells) [3]: 1.3 pM

Substance: flagellin-HBc VLP conjugate with 33 flagellins on a VLP (1:2 reactant ratio) (from UniProt P06179 1-495) (complex)
- bioactivity against free flagellin (SEAP reporter in HEK-Blue-hTLR5 cells) [2]: 7 fold
- potency of TLR5 stimulation, based on flagellin concentration (SEAP reporter in HEK-Blue-hTLR5 cells) [4]: 1 pM

Substance: flagellin mutant SS6 (A51-R451 replaced with cysteine) (from UniProt P06179 1-495) (natural protein)
- EC50 of bioactivity (cell-based TLR5 stimulation assay); decreased against native flagellin [1]: < 10 pM

Substance: flagellin mutant SS5 (L36-D456 replaced with cysteine) (from UniProt P06179 1-495) (natural protein)
- EC50 of bioactivity (cell-based TLR5 stimulation assay); decreased against native flagellin [1]: < 10 pM

Substance: flagellin mutant SS2 (Q22-Q473 replaced with cysteine) (from UniProt P06179 1-495) (natural protein)
- EC50 of bioactivity (cell-based TLR5 stimulation assay); decreased against native flagellin [1]: < 10 pM

Substance: flagellin mutant SS3 (Q22-T477 replaced with cysteine) (from UniProt P06179 1-495) (natural protein)
- EC50 of bioactivity (cell-based TLR5 stimulation assay); decreased against native flagellin [1]: < 10 pM

Substance: flagellin-HBc VLP conjugate with 2 flagellins on a VLP (1:40 reactant ratio) (from UniProt P06179 1-495) (complex)
- bioactivity against free flagellin (SEAP reporter in HEK-Blue-hTLR5 cells) [2]: 7 fold
- potency of TLR5 stimulation, based on flagellin concentration (SEAP reporter in HEK-Blue-hTLR5 cells) [4]: 1 pM

Substance: flagellin without the C-terminal D0 domain (S452-R495) (from UniProt P06179 1-451) (domain or fragment)
- EC50 of bioactivity (SEAP reporter in HEK-Blue-hTLR5 cells) [3]: 80 pM
